Test results published in patent US7408028B2, “Peptides, antibodies thereto, and their use in treatment of central nervous system, damage” (Sinapore General Hospital Pte Ltd., priority 2002, dated 2008).

Key:
[1] = target: T1, Nogo-66 (Homo sapiens, UniProt Q9NQC3); assay: Phage display panning (Ph.D-7 library), clones identified by ELISA and sequencing; type: binding; set-up: GST; made in house; details: target Nogo-66, 3-4 rounds of affinity selection
T1 sequence (Q9NQC3 1055-1120): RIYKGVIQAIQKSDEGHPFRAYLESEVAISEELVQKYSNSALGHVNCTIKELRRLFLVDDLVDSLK
Experimental: (§1) Purification of TN-R, MAG and Nogo from adult mouse brains was performed by immumoaffinity chromatography as previously described (Pesheva, P et al, 1989). Generation and purification of the recombinant domains of TN-R, MAG, Nogo as fusion proteins with GST were performed as previously described (Xiao Z C et al, 1996). All these proteins were used as phage binding targets for rapid screening, using the Ph. D-7TM phage display peptide library kit (New England Biolabs, Ltd) according to the manufacturer's instructions.
(§2) Briefly, a library of phages, displaying different peptide sequences, was exposed to a plate coated with the target protein. Unbound phage was washed away and specifically bound phage was eluted by lowering pH. The eluted pool of phage was amplified, and the process was repeated 3-4 times.
(§3) The peptide-encoding sequences of the specific phage clones were determined by automated sequencing. The sequences of peptides which bound specifically to the targeted proteins were obtained.
(§4) Exemplary 7-mer peptide-endcoding sequences are shown below. “n” refers to the number of isolated phages displaying a peptide having the sequence shown (though there was of course some variability in the encoding nucleic acid sequences, owing to the degeneracy of the genetic code). “SIN” is an abbreviation for “SEQ ID NO.” and refers to the peptide sequence. The SEQ ID NOS of the nucleic acid sequences from the top to the bottom of the table are as follows: SEQ ID NO: 28, SEQ ID NO: 29, SEQ ID NO: 30, SEQ ID NO: 31, SEQ ID NO: 32, SEQ ID NO: 29, SEQ ID NO: 33. SEQ ID NO: 28, SEQ ID NO: 34, SEQ ID NO: 35.

[2] = target: T2, TNR-EGFL (Homo sapiens, UniProt Q92752); assay: as above; type: binding; details: target TNR-EGFL, 3-4 rounds of affinity selection
T2 construct: GST; made in house
T2 sequence (Q92752 125-329): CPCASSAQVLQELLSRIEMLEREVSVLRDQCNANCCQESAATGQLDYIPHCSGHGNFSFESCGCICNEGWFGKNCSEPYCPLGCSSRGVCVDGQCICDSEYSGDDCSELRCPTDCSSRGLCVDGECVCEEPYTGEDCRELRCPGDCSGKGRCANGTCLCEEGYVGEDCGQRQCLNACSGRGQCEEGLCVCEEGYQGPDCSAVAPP
Experimental: as §1, §2, §3, §4

[3] = target: T3, MAG (Mus musculus, UniProt P20917); assay: as above; type: binding; details: target MAG, 3-4 rounds of affinity selection
T3 construct: from tissue; host or cells: adult mouse brain
T3 sequence (P20917 20-627): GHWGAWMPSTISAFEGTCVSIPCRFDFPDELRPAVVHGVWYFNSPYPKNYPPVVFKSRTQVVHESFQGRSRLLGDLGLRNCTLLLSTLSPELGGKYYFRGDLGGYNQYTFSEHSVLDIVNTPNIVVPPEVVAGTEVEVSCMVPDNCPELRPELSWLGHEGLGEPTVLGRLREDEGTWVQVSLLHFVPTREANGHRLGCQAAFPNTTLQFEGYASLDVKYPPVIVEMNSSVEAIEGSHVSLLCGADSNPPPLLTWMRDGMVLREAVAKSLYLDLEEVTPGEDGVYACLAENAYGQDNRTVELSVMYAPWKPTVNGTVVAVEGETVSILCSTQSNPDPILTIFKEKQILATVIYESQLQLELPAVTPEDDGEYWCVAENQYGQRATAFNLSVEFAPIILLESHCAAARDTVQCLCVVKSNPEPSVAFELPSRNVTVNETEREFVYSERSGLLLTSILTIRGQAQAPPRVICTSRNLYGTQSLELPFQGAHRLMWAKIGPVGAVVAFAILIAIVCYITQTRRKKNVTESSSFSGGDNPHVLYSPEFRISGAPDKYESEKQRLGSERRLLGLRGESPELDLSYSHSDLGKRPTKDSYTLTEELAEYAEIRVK
Experimental: as §1, §2, §3, §4

[4] = target: T1, Nogo-66; assay: Phage blocking of the inhibitory effect on NG108 cell adhesion; type: cell-based; set-up: made in house; details: peptide displayed on phage, 24 hours
Experimental: (§5) NG108 cells were plated on poly-DL-ornithine-treated tissue culture petri dish as single-cell suspensions. Specific phages that display the Nogo66-, MAG- and TNR-binding peptides identified above were added to the cell culture. Cells were maintained for 24 hours before fixation and staining with toluidine blue. Cell adhesion was determined as previously described.

[5] = target: T3, MAG; assay: as above; type: cell-based; details: peptide displayed on phage, 24 hours
Experimental: as §5

[6] = tested on: TNR-EGFL; assay: as above; type: cell-based; details: peptide displayed on phage, 24 hours
Experimental: as §5

[7] = tested on: postnatal day 1 hippocampal neurons; details: coated protein; cited from earlier work
[8] = tested on: NG108 cells; assay: Neuronal cell adhesion to protein spots on nitrocellulose-coated dishes; type: cell-based, mouse neuroblastoma—rat glioma hybrid cells; details: spots 5 μM GST-Nogo66, 100 μM Nogo66, Nogol-50, Nogol-25; 12 hours; p<0.05
Experimental: Tissue culture petri dishes (Becton Dickinson) with a diameter of 3.5 cm were coated with methanol-solubilized nitrocellulose according to Lagenaur and Lemmon (1987) and air-dried under a sterile hood. Then the petri dishes were incubated with PBS containing 5 μg/ml poly-DL-ornithine for 2 hours at 37° C. Subsequently, the dishes were washed three times with PBS and dried under a sterile hood.
Protein spots (1.5 μl of 5 μM GST, 5 μM GST-Nogo66, 100 μM Nogo66, 100 μM Nogol-50 or 100 μM Nogol-25) were applied to the nitrocellulose-coated surfaces of the petri dishes and incubated for 2 hours at 37° C. in a humidified atmosphere. Subsequently, the spots were washed three times with PBS. The dishes were then flooded with PBS containing 2% heat-inactivated fatty acid-free BSA (Sigma) and incubated overnight to block residual non-specific protein binding sites.
Then, the dishes were washed with PBS and NG108 cells were plated in 2 ml of Dulbecco's modified Eagle's medium containing 10% fetal bovine serum at a density of 2.5×10^5 cells/ml and incubated at 37° C. in a humidified atmosphere. After 12 hours, the dishes were gently washed three times with PBS and the cells fixed by flooding with PBS containing 2.5% glutaraldehyde. After fixation, cultures were stained with 0.5% toluidine blue (Sigma) in 2.5% sodium carbonate. […]
Cells adhering to the various spots were photographed and counted. […]

[9] = tested on: NG108 cells; assay: Neurite outgrowth assay on coated Nogo domain substrates; type: cell-based, mouse neuroblastoma—rat glioma hybrid cells; details: coated substrate, GST as control
Experimental: NG108 cells were plated on coated substrates using Nogol-25, Nogol-50, Nogol-66, and GST-Nogo-66 as well as GST as control.

[10] = tested on: NG108 cells; assay: Repulsion assay on coated Nogo domain substrates; type: cell-based, mouse neuroblastoma—rat glioma hybrid cells; details: GST as control
Experimental: NG108 cells (mouse neuroblastoma—rat glioma hybrid cells, commercially available from the American Tissue Type Culture Collection, Manassas, Va., USA, under accession number ATCC HB-12317) were plated on coated substrates using Nogol-25, Nogol-50, Nogol-66 and GST-Nogo-66 as well as GST as control. Generation and purification of the recombinant domains of Nogo, either alone or as fusion proteins with GST, were performed as previously described (Xiao Z C et al, 1996).

Molecule: GSLPHSL (From a phage library that displays random 7-mers)
- n, number of isolated phages displaying the peptide [1]: GSLPHSL (n = 8)
- n, number of isolated phages displaying the peptide ([1]; listed as SEQ ID NO. 2): 8
- n, number of isolated phages displaying the peptide [2]: GSLPHSL (n = 1)

Molecule: YTTPPSP (From a phage library that displays random 7-mers)
- n, number of isolated phages displaying the peptide [2]: YTTPPSP (n = 1)
- n, number of isolated phages displaying the peptide ([2]; listed as SEQ ID NO. 6): 1

Molecule: QLPLMPR (From a phage library that displays random 7-mers)
- n, number of isolated phages displaying the peptide [3]: QLPLMPR (n = 5)
- n, number of isolated phages displaying the peptide ([3]; listed as SEQ ID NO. 7): 5

Molecule: HSIPDNI (From a phage library that displays random 7-mers)
- n, number of isolated phages displaying the peptide [2]: HSIPDNI (n = 3)
- n, number of isolated phages displaying the peptide ([2]; listed as SEQ ID NO. 4): 3

Molecule: HHMPHDK (From a phage library that displays random 7-mers)
- n, number of isolated phages displaying the peptide [2]: HHMPHDK (n = 1)
- n, number of isolated phages displaying the peptide ([2]; listed as SEQ ID NO. 5): 1

Molecule: YLTQPQS (From a phage library that displays random 7-mers)
- Block of the inhibitory effect of Nogo-66 on NG108 cell binding [4]: able to block
- Block of the inhibitory effect of Nogo-66 on NG108 cell binding ([4]; listed as SEQ ID NO. 1): block
- n, number of isolated phages displaying the peptide [1]: YLTQPQS (n = 43)
- n, number of isolated phages displaying the peptide ([1]; listed as SEQ ID NO. 1): 43
- Block of the inhibitory effect of MAG on NG108 cell binding [5]: able to block
- Block of the inhibitory effect of MAG on NG108 cell binding ([5]; listed as SEQ ID NO. 1): block
- n, number of isolated phages displaying the peptide [3]: YLTQPQS (n = 19)
- n, number of isolated phages displaying the peptide ([3]; listed as SEQ ID NO. 1): 19

Molecule: TQLFPPQ (From a phage library that displays random 7-mers)
- Block of the inhibitory effect of TNR-EGFL on NG108 cell binding [6]: able to block
- Block of the inhibitory effect of TNR-EGFL on NG108 cell binding ([6]; listed as SEQ ID NO. 3): block
- n, number of isolated phages displaying the peptide [2]: TQLFPPQ (n = 18)
- n, number of isolated phages displaying the peptide ([2]; listed as SEQ ID NO. 3): 18
- n, number of isolated phages displaying the peptide [3]: TQLFPPQ (n = 7)

B1: rMAG: coated recombinant MAG (protein, UniProt P20916 20-626, looked up)
Myelin-associated glycoprotein: GHWGAWMPSSISAFEGTCVSIPCRFDFPDELRPAVVHGVWYFNSPYPKNYPPVVFKSRTQVVHESFQGRSRLLGDLGLRNCTLLLSNVSPELGGKYYFRGDLGGYNQYTFSEHSVLDIVNTPNIVVPPEVVAGTEVEVSCMVPDNCPELRPELSWLGHEGLGEPAVLGRLREDEGTWVQVSLLHFVPTREANGHRLGCQASFPNTTLQFEGYASMDVKYPPVIVEMNSSVEAIEGSHVSLLCGADSNPPPLLTWMRDGTVLREAVAESLLLELEEVTPAEDGVYACLAENAYGQDNRTVGLSVMYAPWKPTVNGTMVAVEGETVSILCSTQSNPDPILTIFKEKQILSTVIYESELQLELPAVSPEDDGEYWCVAENQYGQRATAFNLSVEFAPVLLLESHCAAARDTVQCLCVVKSNPEPSVAFELPSRNVTVNESEREFVYSERSGLVLTSILTLRGQAQAPPRVICTARNLYGAKSLELPFQGAHRLMWAKIGPVGAVVAFAILIAIVCYITQTRRKKNVTESPSFSAGDNPPVLFSSDFRISGAPEKYESERRLGSERRLLGLRGEPPELDLSYSHSDLGKRPTKDSYTLTEELAEYAEIRVK
- Axonal growth cones collapsed [7]: 60%

B2: denatured rMAG: denatured recombinant MAG (protein, UniProt P20916 20-626, looked up)
Myelin-associated glycoprotein: B1 Myelin-associated glycoprotein
modifications: denatured recombinant
notes: denatured recombinant MAG
- Axonal growth cones collapsed [7]: not observed

B3: Nogol-66: recombinant domain of Nogo (66-residue extracellular domain) used as coated substrate (protein)
chain: T1 sequence (Q9NQC3 1055-1120)
modifications: not fully specified
notes: recombinant domain of Nogo (66-residue extracellular domain) used as coated substrate
- NG108 cell counts adhering to protein spot compared to GST [8]: significantly reduced
- Neurite outgrowth of NG108 cells inhibited [9]: inhibited significantly
- NG108 cells repelled from coated substrate [10]: repelled significantly

B4: GST-Nogo-66: recombinant Nogo-66 domain as fusion protein with GST (protein)
chain: T1 sequence (Q9NQC3 1055-1120)
modifications: also: fused to GST
notes: recombinant Nogo-66 domain as fusion protein with GST
- NG108 cell counts adhering to protein spot compared to GST [8]: significantly reduced
- Neurite outgrowth of NG108 cells inhibited [9]: inhibited significantly
- NG108 cells repelled from coated substrate [10]: repelled significantly
